Reference: article PMC10238739, “Interaction with single-stranded DNA-binding protein modulates Escherichia coli RadD DNA repair activities” (The Journal of Biological Chemistry, 2023)
Changes are numbered by the printed parent chain. Names may count otherwise.

B1: RadD (Escherichia coli K-12; R49E) (protein)
chain: MIFTLRPYQQEAVDATLNHFRRHKTPAVIVLPTGAGKSLVIAELARLAEGRVLVLAHVKELVAQNHAKYQALGLEADIFAAGLKRKESHGKVVFGSVQSVARNLDAFQGEFSLLIVDECHRIGDDEESQYQQILTHLTKVNPHLRLLGLTATPFRLGKGWIYQFHYHGMVRGDEKALFRDCIYELPLRYMIKHGYLTPPERLDMPVVQYDFSRLQAQSNGLFSEADLNRELKKQQRITPHIISQIMEFAATRKGVMIFAATVEHAKEIVGLLPAEDAALITGDTPGAERDVLIENFKAQRFRYLVNVAVLTTGFDAPHVDLIAILRPTESVSLYQQIVGRGLRLAPGKTDCLILDYAGNPHDLYAPEVGTPKGKSDNVPVQVFCPACGFANTFWGKTTADGTLIEHFGRRCQGWFEDDDGHREQCDFRFRFKNCPQCNAENDIAARRCRECDTVLVDPDDMLKAALRLKDALVLRCSGMSLQHGHDEKGEWLKITYYDEDGADVSERFRLQTPAQRTAFEQLFIRPHTRTPGIPLRWITAADILAQQALLRHPDFVVARMKGQYWQVREKVFDYEGRFRLAHELRG
notes: full-length, untagged; expressed from plasmid pEAW724 in E. coli STL2669/pT7pol26; conventional chromatography
B2: RadD (Escherichia coli K-12) (protein)
chain: B1 chain with E49R
notes: as for B1
B3: RadD (Escherichia coli K-12; R145E) (protein)
chain: B1 chain with E49R, R145E
notes: as for B1
B4: RadD (Escherichia coli K-12; R21E) (protein)
chain: B1 chain with R21E, E49R
notes: as for B1
B5: Escherichia coli RadD, wild type (enzyme, E. coli)
chain: B1 chain with E49R
B6: RadD R21E (enzyme)
chain: B1 chain with R21E, E49R
B7: RadD R145E (enzyme)
chain: B1 chain with E49R, R145E
B8: RadD R49E (enzyme)
chain: B1 chain

These binders were tested on Nc1ncnc2c1ncn2[C@@H]1O[C@H](COP(=O)(O)OP(=O)(O)OP(=O)(O)O)[C@@H](O)[C@H]1O (assay: coupled spectrophotometric ATPase assay (NADH oxidation)). Conditions: no SSB, no DNA, 200 nM RadD, 10 mM Mg acetate, 200 mM K glutamate, pH 7.5, 37 °C.
Format: biochemical, Escherichia coli
Source text: coupled spectrophotometric ATPase assay (NADH oxidation) on RadD

B1 and B2 are within 1.5-fold of each other in Km: 464 ± 44 µM for the first, 640 ± 76 µM for the second.

B3 and B4 are within error of each other in Km: 698 ± 75 µM for the first, 654 ± 52 µM for the second.

Going from B1 to B2, the Vmax falls from 51 µM/min to 29.4 µM/min.

Going from B3 to B4, the Vmax rises from 28.4 µM/min to 42.3 µM/min.

These binders were tested against FAM labeled SSB C-terminal peptide … (E. coli) (assay: fluorescence polarisation; fluorescence anisotropy; 10 nM 5-FAM SSB C-terminal peptide, RadD or variant titrated up to 30 μM; 25 mM Tris-acetate pH 7.5, 200 mM potassium glutamate, 10 mM magnesium acetate, 1 mM DTT, 0.1 μg/ml BSA; 15 min at room temperature; apparent KD, one-site fit). Conditions: not given.

Going from B5 to B6, the Kd rises from 5.4 µM to > 30 µM.

B7 and B8 cannot be ordered by Kd: > 30 µM for the first, > 30 µM for the second.

The binders below were run against Escherichia coli single-stranded DNA-binding protein (SSB), full-length (E. coli, UniProt P0AGE0 1-178) (assay: cell-based or functional assay). Conditions: not given.
Chain of Escherichia coli single-stranded DNA-binding protein (SSB), full-length (P0AGE0 whole entry): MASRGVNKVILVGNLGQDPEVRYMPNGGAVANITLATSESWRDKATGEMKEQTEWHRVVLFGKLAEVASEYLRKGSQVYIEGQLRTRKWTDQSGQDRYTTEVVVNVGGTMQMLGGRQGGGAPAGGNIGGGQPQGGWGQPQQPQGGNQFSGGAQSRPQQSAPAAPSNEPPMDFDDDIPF

In the case of B5, the “ATPase rate of 200 nM RadD on titration of SSB from 0 to 40 μM” value is reported as ~3 fold.
